The values that follow come from IntAct's records for PubMed 21423167.

Sequences and labels used below:
B1: NF-kappa-B inhibitor alpha (Homo sapiens), P25963 (parent)
chain: MFQAAERPQEWAMEGPRDGLKKERLLDDRHDSGLDSMKDEEYEQMVKELQEIRLEPQEVPRGSEPWKQQLTEDGDSFLHLAIIHEEKALTMEVIRQVKGDLAFLNFQNNLQQTPLHLAVITNQPEIAEALLGAGCDPELRDFRGNTPLHLACEQGCLASVGVLTQSCTTPHLHSILKATNYNGHTCLHLASIHGYLGIVELLVSLGADVNAQEPCNGRTALHLAVDLQNPDLVSLLLKCGADVNRVTYQGYSPYQLTWGRPSTRIQQQLGQLTLENLQMLPESEDEESYDTESEFTEFTEDELPYDDCVFGGQRLTL
partner: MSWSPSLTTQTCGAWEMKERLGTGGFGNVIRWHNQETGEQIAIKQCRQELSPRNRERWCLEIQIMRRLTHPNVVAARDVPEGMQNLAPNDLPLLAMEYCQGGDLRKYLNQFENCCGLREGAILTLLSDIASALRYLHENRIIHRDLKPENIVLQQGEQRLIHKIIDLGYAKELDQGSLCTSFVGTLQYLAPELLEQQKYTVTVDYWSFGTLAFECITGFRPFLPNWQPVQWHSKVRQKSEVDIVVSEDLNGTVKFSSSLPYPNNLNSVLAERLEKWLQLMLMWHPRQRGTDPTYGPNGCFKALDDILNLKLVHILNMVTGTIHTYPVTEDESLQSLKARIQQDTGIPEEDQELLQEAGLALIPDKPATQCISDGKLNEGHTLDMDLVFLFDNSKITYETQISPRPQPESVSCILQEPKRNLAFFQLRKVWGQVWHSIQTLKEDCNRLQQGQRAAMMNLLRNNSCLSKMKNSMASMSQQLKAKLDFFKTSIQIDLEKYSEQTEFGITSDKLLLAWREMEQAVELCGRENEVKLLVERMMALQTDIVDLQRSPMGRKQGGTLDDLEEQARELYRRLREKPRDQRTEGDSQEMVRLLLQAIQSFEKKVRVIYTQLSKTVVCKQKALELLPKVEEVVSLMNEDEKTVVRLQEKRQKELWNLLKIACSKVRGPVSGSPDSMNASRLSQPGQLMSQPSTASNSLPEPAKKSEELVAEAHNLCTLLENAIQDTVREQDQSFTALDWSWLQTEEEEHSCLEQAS

In this assay the parent is B1. To be noted: with ikkb_human IKBKB.
Take S32A;S36A: the “effect of a mutation on the interaction” value is recorded as “decreasing interaction”.
